Reference: publication PMC5916898, “Global profiling of protein–DNA and protein–nucleosome binding affinities using quantitative mass spectrometry”

T1: VEZF1 (Homo sapiens, UniProt Q14119)
T1 sequence: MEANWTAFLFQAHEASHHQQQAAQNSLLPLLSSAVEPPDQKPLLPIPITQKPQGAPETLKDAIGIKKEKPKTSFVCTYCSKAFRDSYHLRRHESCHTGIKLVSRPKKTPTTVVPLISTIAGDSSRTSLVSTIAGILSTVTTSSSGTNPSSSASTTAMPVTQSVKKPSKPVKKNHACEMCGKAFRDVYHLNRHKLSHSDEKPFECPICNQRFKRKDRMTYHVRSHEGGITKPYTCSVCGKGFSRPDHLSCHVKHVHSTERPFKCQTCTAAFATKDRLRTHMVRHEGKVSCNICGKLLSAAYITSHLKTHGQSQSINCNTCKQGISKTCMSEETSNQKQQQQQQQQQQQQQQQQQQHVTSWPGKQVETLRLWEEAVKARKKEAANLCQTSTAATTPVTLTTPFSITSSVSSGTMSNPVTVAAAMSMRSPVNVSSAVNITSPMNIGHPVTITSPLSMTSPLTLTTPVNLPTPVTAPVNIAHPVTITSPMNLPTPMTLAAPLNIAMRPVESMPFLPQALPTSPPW

T2: ZNF148 (Homo sapiens, UniProt Q9UQR1)
T2 sequence: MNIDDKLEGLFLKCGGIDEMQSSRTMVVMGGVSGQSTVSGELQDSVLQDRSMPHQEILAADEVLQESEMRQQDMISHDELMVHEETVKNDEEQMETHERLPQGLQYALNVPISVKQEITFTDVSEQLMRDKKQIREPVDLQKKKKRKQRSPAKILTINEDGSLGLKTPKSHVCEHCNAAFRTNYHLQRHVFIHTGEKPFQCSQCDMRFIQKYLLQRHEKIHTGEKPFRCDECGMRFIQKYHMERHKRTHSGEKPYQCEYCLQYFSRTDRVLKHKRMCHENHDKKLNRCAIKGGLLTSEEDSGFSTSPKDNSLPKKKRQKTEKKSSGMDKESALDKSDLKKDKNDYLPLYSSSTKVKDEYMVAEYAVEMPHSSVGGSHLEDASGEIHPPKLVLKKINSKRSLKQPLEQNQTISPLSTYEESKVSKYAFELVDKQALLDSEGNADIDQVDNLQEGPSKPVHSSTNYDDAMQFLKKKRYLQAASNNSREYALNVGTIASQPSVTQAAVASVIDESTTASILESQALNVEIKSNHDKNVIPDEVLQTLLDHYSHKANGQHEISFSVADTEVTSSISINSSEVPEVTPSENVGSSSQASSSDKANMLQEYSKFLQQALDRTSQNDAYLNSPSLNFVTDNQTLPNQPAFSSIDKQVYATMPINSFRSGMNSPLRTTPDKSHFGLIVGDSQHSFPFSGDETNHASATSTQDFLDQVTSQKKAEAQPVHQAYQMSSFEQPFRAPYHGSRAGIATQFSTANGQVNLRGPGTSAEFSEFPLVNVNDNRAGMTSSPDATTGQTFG

T3: BBX (Homo sapiens, UniProt Q8WY36)
T3 sequence: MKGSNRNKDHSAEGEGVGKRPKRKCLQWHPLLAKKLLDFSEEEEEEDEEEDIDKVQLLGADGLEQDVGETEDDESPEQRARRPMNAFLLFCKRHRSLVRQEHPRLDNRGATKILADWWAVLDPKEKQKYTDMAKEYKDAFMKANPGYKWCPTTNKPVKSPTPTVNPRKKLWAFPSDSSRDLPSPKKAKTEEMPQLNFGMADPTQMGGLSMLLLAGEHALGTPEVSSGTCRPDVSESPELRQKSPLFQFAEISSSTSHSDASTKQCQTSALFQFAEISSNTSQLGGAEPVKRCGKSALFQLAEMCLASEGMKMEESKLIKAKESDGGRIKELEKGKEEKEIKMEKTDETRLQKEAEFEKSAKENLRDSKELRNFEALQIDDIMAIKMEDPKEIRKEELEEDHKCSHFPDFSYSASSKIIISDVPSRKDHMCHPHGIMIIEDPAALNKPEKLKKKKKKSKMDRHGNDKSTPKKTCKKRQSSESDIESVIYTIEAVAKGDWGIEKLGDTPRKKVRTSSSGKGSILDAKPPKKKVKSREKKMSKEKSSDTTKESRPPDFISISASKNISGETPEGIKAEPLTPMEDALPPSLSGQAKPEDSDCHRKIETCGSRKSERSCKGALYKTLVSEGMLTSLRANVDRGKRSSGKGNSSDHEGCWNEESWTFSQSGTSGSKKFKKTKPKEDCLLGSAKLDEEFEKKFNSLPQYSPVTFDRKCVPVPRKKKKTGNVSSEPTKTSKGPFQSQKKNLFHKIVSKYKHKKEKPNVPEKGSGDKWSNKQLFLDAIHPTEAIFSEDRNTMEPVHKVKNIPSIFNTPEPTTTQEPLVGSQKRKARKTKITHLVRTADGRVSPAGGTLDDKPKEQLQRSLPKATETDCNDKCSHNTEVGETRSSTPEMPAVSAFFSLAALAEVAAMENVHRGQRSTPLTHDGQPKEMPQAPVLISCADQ

B1: SP/KLF wild-type (dsDNA)
DNA 1: GAGAGCCCCGCCCCCTGGCT
DNA 2: AGCCAGGGGGCGGGGCTCTC
B2: TATA-box (dsDNA)
DNA 1: GCGGCGCTCTATATAAGTGGGCAGTG
DNA 2: CACTGCCCACTTATATAGAGCGCCGC
B3: CTCF (dsDNA)
DNA 1: TCAGAGTGGCGGCCAGCAGGGGGCGCCCTTGCCAGA
DNA 2: TCTGGCAAGGGCGCCCCCTGCTGGCCGCCACTCTGA
B4: TEAD (dsDNA)
DNA 1: TCGGGACCCAGGCCTGGAATGTTTCCACC
DNA 2: GGTGGAAACATTCCAGGCCTGGGTCCCGA

Experiments:
Test in all cases: pulldown; 150 mM NaCl, 50 mM Tris pH 8, 0.25% NP-40, 1 mM TCEP; 4 C, 2 h; 100 ug HeLa nuclear lysate
Details in all cases: protein: extract; label: 5' biotin (strand 1)
KLF4 = KLF4 (Homo sapiens, UniProt O43474)
ZBTB7A = ZBTB7A (Homo sapiens, UniProt O95365)
KLF5 = KLF5 (Homo sapiens, UniProt Q13887)
VEZF1 = molecular target: T1, VEZF1
ZNF148 = molecular target: T2, ZNF148
SP1 = SP1 (Homo sapiens, UniProt P08047)
KLF16 = KLF16 (Homo sapiens, UniProt Q9BXK1)
BBX = molecular target: T3, BBX

Sequence of KLF5 (Q13887 whole entry): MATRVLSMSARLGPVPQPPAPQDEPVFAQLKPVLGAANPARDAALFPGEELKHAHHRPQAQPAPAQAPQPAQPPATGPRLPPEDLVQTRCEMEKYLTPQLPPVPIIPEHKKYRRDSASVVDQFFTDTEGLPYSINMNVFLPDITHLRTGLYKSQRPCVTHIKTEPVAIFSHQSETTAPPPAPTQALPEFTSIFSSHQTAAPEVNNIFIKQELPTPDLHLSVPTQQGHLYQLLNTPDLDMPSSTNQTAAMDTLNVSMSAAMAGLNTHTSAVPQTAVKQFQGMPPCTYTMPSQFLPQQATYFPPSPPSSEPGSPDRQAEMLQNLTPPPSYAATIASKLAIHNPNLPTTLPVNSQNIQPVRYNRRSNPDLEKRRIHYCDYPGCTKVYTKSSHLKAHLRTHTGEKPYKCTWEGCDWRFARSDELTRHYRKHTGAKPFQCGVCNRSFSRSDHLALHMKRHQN
Sequence of SP1 (P08047 whole entry): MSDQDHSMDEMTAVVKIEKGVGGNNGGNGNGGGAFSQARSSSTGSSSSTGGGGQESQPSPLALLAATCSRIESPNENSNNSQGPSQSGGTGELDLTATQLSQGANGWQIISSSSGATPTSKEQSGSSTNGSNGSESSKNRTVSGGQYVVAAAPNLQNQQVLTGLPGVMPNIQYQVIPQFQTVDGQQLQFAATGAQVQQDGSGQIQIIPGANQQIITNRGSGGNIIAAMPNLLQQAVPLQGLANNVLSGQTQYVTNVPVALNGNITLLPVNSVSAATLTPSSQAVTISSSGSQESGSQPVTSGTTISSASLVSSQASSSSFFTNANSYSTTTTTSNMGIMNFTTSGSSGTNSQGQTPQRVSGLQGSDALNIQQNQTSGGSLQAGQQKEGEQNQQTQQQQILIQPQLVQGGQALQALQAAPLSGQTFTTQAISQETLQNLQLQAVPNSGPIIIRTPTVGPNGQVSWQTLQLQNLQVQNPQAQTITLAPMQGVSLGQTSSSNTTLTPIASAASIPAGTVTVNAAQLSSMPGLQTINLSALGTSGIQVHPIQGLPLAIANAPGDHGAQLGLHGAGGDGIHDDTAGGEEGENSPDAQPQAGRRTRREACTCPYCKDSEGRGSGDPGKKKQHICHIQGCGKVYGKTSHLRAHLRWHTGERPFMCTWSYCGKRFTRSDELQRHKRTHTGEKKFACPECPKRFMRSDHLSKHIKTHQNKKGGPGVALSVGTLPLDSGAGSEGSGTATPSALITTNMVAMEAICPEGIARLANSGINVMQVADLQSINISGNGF
Sequence of KLF16 (Q9BXK1 whole entry): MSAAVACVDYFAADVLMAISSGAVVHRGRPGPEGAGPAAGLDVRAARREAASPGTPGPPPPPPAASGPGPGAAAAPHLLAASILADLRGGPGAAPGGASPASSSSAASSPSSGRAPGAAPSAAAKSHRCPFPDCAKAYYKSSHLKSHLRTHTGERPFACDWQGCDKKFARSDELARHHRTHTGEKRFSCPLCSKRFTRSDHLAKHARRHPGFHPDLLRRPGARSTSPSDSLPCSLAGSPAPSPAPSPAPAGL
Sequence of KLF4 (O43474 whole entry): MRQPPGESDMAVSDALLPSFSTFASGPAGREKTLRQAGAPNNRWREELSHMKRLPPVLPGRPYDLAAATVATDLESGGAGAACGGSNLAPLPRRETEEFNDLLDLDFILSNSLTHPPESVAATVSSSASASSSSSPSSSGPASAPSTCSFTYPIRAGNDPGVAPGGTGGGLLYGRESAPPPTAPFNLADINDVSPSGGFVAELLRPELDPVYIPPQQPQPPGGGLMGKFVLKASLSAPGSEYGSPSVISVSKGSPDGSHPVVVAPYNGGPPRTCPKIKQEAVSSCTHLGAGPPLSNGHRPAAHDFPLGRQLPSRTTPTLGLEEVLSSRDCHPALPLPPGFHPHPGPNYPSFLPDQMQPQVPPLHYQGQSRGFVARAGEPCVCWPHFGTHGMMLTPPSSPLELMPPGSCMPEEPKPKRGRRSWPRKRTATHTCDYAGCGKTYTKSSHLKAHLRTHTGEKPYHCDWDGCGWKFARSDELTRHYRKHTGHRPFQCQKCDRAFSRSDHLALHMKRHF
Sequence of ZBTB7A (O95365 whole entry): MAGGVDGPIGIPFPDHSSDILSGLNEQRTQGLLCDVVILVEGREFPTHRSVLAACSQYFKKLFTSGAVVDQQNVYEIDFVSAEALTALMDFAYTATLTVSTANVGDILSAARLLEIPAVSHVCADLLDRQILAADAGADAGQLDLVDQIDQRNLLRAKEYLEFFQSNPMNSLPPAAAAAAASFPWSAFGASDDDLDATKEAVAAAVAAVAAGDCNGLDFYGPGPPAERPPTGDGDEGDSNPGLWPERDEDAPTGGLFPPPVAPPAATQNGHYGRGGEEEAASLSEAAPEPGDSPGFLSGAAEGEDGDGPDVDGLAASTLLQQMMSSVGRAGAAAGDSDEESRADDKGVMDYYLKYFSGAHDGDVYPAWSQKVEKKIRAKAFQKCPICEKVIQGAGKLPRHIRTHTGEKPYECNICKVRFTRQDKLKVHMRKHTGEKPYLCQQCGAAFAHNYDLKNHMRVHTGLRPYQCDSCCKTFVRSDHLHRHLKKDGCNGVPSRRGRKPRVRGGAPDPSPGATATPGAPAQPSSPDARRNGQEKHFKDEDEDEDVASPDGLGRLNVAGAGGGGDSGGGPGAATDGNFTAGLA

| Binder | apparent K (half saturation) (KLF4) | apparent K (half saturation) (ZBTB7A) | apparent K (half saturation) (KLF5) | apparent K (half saturation) (VEZF1) | apparent K (half saturation) (ZNF148) | apparent K (half saturation) (SP1) | apparent K (half saturation) (KLF16) | apparent K (half saturation) (BBX) |
| --- | --- | --- | --- | --- | --- | --- | --- | --- |
| B1 | 79.3 nM | 174 nM | 37 nM | 182 nM | 70.5 nM | 38 nM | 14.5 nM | – |
| B2 | 159 nM | 258 nM | 219 nM | 227 nM | 383 nM | 284 nM | 151 nM | 405 nM |
| B3 | 26.3 nM | 38.9 nM | 25.3 nM | 34.1 nM | 63.7 nM | 86.9 nM | 109 nM | 308 nM |
| B4 | – | 129 nM | 101 nM | 225 nM | 387 nM | – | – | 390 nM |
